For experiment [1], the target named is HLA-A*02:01. Kind of experiment: IEDB peptide-MHC binding, purified MHC/competitive/radioactivity; ≥ and ≤ were set here for values at or beyond the usual limits of such assays.
The target in experiment [2] is HLA-B*40:01. Kind of experiment: IEDB peptide-MHC binding, purified MHC/competitive/fluorescence; filed as Kd, often an IC50 or EC50 that approximates it; ≥ and ≤ were set here for values at or beyond the usual limits of such assays.
The target in experiment [3] is HLA-B*15:01. The description is as above. To be noted: source organism: Escherichia coli O139:H28 str. E24377A.
Experiment [4] concerns the target HLA-B*27:05. The description is as above.
Another experiment addresses HLA-B*39:01. The description is as above.
For another experiment, the target named is HLA-C*06:02. The experiment in a line: IEDB peptide-MHC binding, purified MHC/direct/fluorescence; filed as Kd, often an IC50 or EC50 that approximates it; ≥ and ≤ were set here for values at or beyond the usual limits of such assays.
In the next experiment the target is HLA-C*14:02. Described as above.
Another experiment addresses HLA-C*12:03. The description is as above.
The target of experiment [5] is HLA-A*02:01. Described as above.
The next experiment has as its target HLA-C*05:01. Described as above.
For the next experiment, the target named is HLA-C*03:03. The description is as above.
Another experiment concerns the target HLA-A*69:01. The description is as above.
For the next experiment, the target named is HLA-A*02:03. The description is as above. The settings on record: source organism: Variola virus.
Another experiment has as its target HLA-B*35:01. Kind of experiment: IEDB peptide-MHC binding, purified MHC/competitive/fluorescence; filed as Kd, often an IC50 or EC50 that approximates it; ≥ and ≤ were set here for values at or beyond the usual limits of such assays. The settings on record: source organism: Camelpox virus M-96.
Experiment [6] deals with HLA-B*07:02. The experiment is described as above.
A further experiment deals with HLA-C*15:02. The experiment in a line: IEDB peptide-MHC binding, purified MHC/direct/fluorescence; filed as Kd, often an IC50 or EC50 that approximates it; ≥ and ≤ were set here for values at or beyond the usual limits of such assays.
The target in the next experiment is HLA-A*23:01. The experiment is described as above. The settings on record: source organism: Vibrio cholerae.
In the next experiment the target is HLA-A*24:03. Described as above. The settings on record: source organism: Vibrio cholerae.
The target in another experiment is HLA-C*07:02. The experiment is described as above. The settings on record: source organism: Vibrio cholerae AM-19226.
In experiment [7] the target is HLA-B*46:01. The experiment in a line: IEDB peptide-MHC binding, purified MHC/competitive/fluorescence; filed as Kd, often an IC50 or EC50 that approximates it; ≥ and ≤ were set here for values at or beyond the usual limits of such assays. To be noted: source organism: Vibrio cholerae AM-19226.
In another experiment the target is HLA-B*08:03. The experiment in a line: IEDB peptide-MHC binding, purified MHC/direct/fluorescence; filed as Kd, often an IC50 or EC50 that approximates it; ≥ and ≤ were set here for values at or beyond the usual limits of such assays. The settings on record: source organism: Orthomarburgvirus marburgense.
A further experiment deals with HLA-A*11:01. The description is as above. The settings on record: source organism: Lake Victoria marburgvirus - Popp.
The next experiment has as its target HLA-A*01:01. The experiment is described as above. To be noted: source organism: Lake Victoria marburgvirus - Popp.
In another experiment the target is HLA-A*31:01. The experiment is described as above.
The target in another experiment is HLA-A*68:02. Described as above. The settings on record: source organism: Lake Victoria marburgvirus - Popp.
The next experiment has as its target HLA-A*03:01. The description is as above. The settings on record: source organism: Lake Victoria marburgvirus - Popp.
The target of another experiment is HLA-B*15:17. Described as above. The settings on record: source organism: Lake Victoria marburgvirus - Popp.
The target of experiment [8] is HLA-B*46:01. The experiment is described as above. The settings on record: source organism: Lake Victoria marburgvirus - Popp.
Another experiment deals with HLA-B*08:01. The description is as above. The settings on record: source organism: Orthomarburgvirus marburgense.
In the next experiment the target is HLA-B*48:01. The description is as above. The settings on record: source organism: Lake Victoria marburgvirus - Popp.
In experiment [9] the target is HLA-B*40:01. Described as above. To be noted: source organism: Lake Victoria marburgvirus - Popp.
The target of experiment [10] is HLA-B*15:01. Described as above. The settings on record: source organism: Lake Victoria marburgvirus - Popp.
For experiment [11], the target named is HLA-B*27:05. The experiment is described as above. The settings on record: source organism: Lake Victoria marburgvirus - Popp.
Experiment [12] addresses HLA-B*07:02. The description is as above. The settings on record: source organism: Lake Victoria marburgvirus - Popp.
For the next experiment, the target named is HLA-A*26:01. The experiment is described as above. To be noted: source organism: Orthomarburgvirus marburgense.
The next experiment deals with HLA-B*58:01. The description is as above. The settings on record: source organism: Lake Victoria marburgvirus - Popp.
A further experiment addresses HLA-B*57:01. The description is as above. To be noted: source organism: Lake Victoria marburgvirus - Popp.
Another experiment addresses HLA-A*02:06. Kind of experiment: IEDB peptide-MHC binding, purified MHC/competitive/fluorescence; filed as Kd, often an IC50 or EC50 that approximates it; ≥ and ≤ were set here for values at or beyond the usual limits of such assays. The settings on record: source organism: Orthomarburgvirus marburgense.
The target of another experiment is HLA-A*26:02. Described as above. To be noted: source organism: Orthomarburgvirus marburgense.
The target in another experiment is HLA-B*15:42. The experiment is described as above. The settings on record: source organism: Mycobacterium tuberculosis C.
A further experiment has as its target HLA-B*83:01. The experiment is described as above. The settings on record: source organism: Mycobacterium tuberculosis C.
For a further experiment, the target named is HLA-B*45:06. Described as above. To be noted: source organism: Mycobacterium tuberculosis C.
The mark [13] stands for this setting: source organism: Escherichia coli O139:H28 str. E24377A.
[14] abbreviates: source organism: Mycobacterium tuberculosis H37Ra.
[15] abbreviates: source organism: Camelpox virus M-96.
The mark [16] stands for this setting: source organism: Camelpox virus CMS.
Where [17] appears, read: source organism: Vibrio cholerae AM-19226.
[18] abbreviates: source organism: Lake Victoria marburgvirus - Popp.
The mark [19] stands for this setting: source organism: Rickettsia massiliae MTU5.
Where [20] appears, read: source organism: Pseudomonas aeruginosa.

pIC50, pKd: −log10 of the molar value.

Regarding HMTEVVRRC, the pIC50 in the experiment with HLA-A*02:01 [1] (source organism: Homo sapiens) was 4.99.

Turning to RQGWARAML, the pKd with HLA-B*40:01 [2] (setting [13]) was 6.50; with HLA-B*15:01 [3], 6.85; in the experiment with HLA-B*27:05 [4] (setting [13]), 6.72; with HLA-B*39:01 (setting [13]) it was at most 4.70.

YRYSLSSDL: the pKd with HLA-C*06:02 (source organism: Vaccinia virus WR) was 8.40.

As for VLMAVVLASL, the pIC50 with HLA-A*02:01 [1] (source organism: Homo sapiens) was 7.34.

As for KINIFMAFL, the pKd with HLA-C*14:02 (source organism: Taterapox virus) was at most 4.70.

As for YQERFVLAL, the pKd in the experiment with HLA-B*27:05 [4] (setting [14]) was 6.02; with HLA-B*39:01 (setting [14]), 8.77.

As to FLPVDFFPSI, the pIC50 with HLA-A*02:01 [1] (source organism: Hepatitis B virus) is 7.46.

For the sequence LMDENTYAM, the pKd is at most 4.70 with HLA-C*12:03 (setting [15]); at least 9.00 with HLA-A*02:01 [5] (setting [16]); 8.15 with HLA-C*05:01 (setting [15]); 6.23 with HLA-C*03:03 (setting [15]); 7.24 with HLA-A*69:01 (setting [16]); 7.70 with HLA-A*02:03. Moreover, the pKd with HLA-B*35:01 was 9.70.

For the sequence EIRTFSFQL, in the experiment with HLA-B*07:02 [6] (source organism: Influenza A virus (A/duck/England/1/1956(H11N6))), the pKd is at most 4.70.

As for YALPSAGAF, the pKd in the experiment with HLA-C*15:02 (setting [17]) is 6.41; with HLA-A*23:01 it was 6.35; with HLA-C*14:02 (setting [17]), 7.34; with HLA-A*24:03 it was 6.54; in the experiment with HLA-C*03:03 (setting [17]), at least 9.00; in the experiment with HLA-C*07:02, 6.39. The same sequence gave a pKd with HLA-B*46:01 [7] of 7.46.

As to KNYPASLHK, the pKd in the experiment with HLA-B*08:03 is at most 4.70; in the experiment with HLA-A*11:01, 7.04; with HLA-A*01:01 it was at most 4.70; with HLA-A*02:01 [5] (setting [18]), at most 4.70; with HLA-A*31:01 (setting [18]), at most 4.70; with HLA-A*68:02 it was at most 4.70. Besides, the pKd with HLA-A*03:01 was 6.99; with HLA-B*15:17, at most 4.70; with HLA-B*46:01 [8] it was at most 4.70; in the experiment with HLA-B*08:01, at most 4.70; with HLA-B*48:01, at most 4.70; with HLA-B*40:01 [9], at most 4.70. Moreover, the pKd with HLA-B*15:01 [10], in the experiment with HLA-B*27:05 [11], with HLA-B*07:02 [12], with HLA-A*26:01, with HLA-B*58:01 and in the experiment with HLA-B*57:01 was at most 4.70 each time. In addition, the pKd with HLA-A*02:06 was 6.20; with HLA-A*26:02, at most 4.70.

For the sequence FMRFAFLSM, the pKd is 6.05 in the experiment with HLA-C*12:03 (setting [19]), at most 4.70 with HLA-C*15:02 (setting [19]) and at most 4.70 with HLA-C*06:02 (setting [19]).

Turning to SPYNSRFESV, the pKd in the experiment with HLA-B*07:02 [6] (source organism: Influenza A virus) is 8.47.

In the experiment with HLA-B*27:05 [4] (source organism: Mammarenavirus machupoense), FRWTQSLRR showed a pKd of 7.40.

With YPRNGWPAL, the pKd with HLA-C*05:01 (source organism: Mycobacterium tuberculosis C) is at most 4.70; with HLA-B*15:42 it was at most 5.30; with HLA-B*83:01 it was 7.46; with HLA-B*45:06 it was at most 5.30.

Regarding ILDAHSLYL, the pIC50 with HLA-A*02:01 [1] (source organism: Rift Valley fever virus) is 8.89.

In the experiment with HLA-B*40:01 [2] (source organism: Escherichia coli 536), GEDAKLIAV had a pKd of 8.42.

On to AYFATPASV, for which the pKd with HLA-A*02:01 [5] (setting [20]) was 5.64; with HLA-A*31:01 (setting [20]) it was 6.68; in the experiment with HLA-C*14:02 (source organism: Pseudomonas aeruginosa 2192), at least 9.00; with HLA-A*69:01 (setting [20]), 5.36.

Regarding GLIDIAPHQISS, the pIC50 with HLA-A*02:01 [1] (setting [14]) was 6.76.

For orientation: pIC50 means −log10 of the IC50, conventionally taken in molar units. The pKd is the negative decadic logarithm of the Kd, by convention in mol/L. The low end stands for a large Kd, the high end for a small Kd.

The values are drawn from the Immune Epitope Database (IEDB).
